Results from patent US20200370050.

Target: FLAG-CRAF (1-648)

B1: human placental GSTP1 (Sigma-Aldrich) (protein)
chain: PPYTVVYFPVRGRCAALRMLLADQGQSWKEEVVTVETWQEGSLKASCLYGQLPKFQDGDLTLYQSNTILRHLGRTLGLYGKDQQEAALVDMVNDGVEDLRCKYISLIYTNYEAGKDDYVKALPGQLKPFETLLSQNQGGKTFIVGDQISFADYNLLDLLLIHEVLAPGCLDAFPLLSAYVGRLSARPKLKAFLASPEYVNLPINGNGKQ
phosphorylation of MEK1 by FLAG-CRAF (in vitro kinase assay, Western blot for p-MEK1/2): GSTP1 was found to enhance the phosphorylation of MEK1 by FLAG-CRAF (compare lanes 3 and 5 in FIG. 3)
